Consider one substance from patent publication US8119589B2, “Modulation of CD4+ T cell responses by a tick saliva protein, Salp15 and polypeptides derived therefrom” (University of North Carolina at Charlotte, priority 2004, dated 2012).

Assay [1] addresses T1, sCD4 D1-D4 (Homo sapiens, UniProt P01730).
T1 construct: a sCD4 preparation that contains all four extracellular domains (D1-D4)
Put plainly: Analytical gel filtration and native gel electrophoresis of Salp15-sCD4. The following applies: native PAGE and Western blot. The format is binding. How it is done:
Purified sCD4 (D1-D4, 10 μg) and Salp15 (20 μg) were eluted through two SUPERDEX-200™ HR 10/30 gel filtration columns (Amersham Pharmacia Biotech, Piscataway, N.J., U.S.A.) connected in tandem using PBS as equilibration and elution buffer at a flow rate of 0.3 mL/min using an FPLC system (Amersham Pharmacia Biotech) equipped with a liquid chromatography controller LCC-501 Plus and regulated using FPLC director V1.10. To get the elution profile of the Salp15-CD4 complex, Salp15 was incubated with sCD4 before passing it through the gel filtration column. Blue dextran was used to estimate the void volume of the columns, while BSA, ovalbumin and lysozyme were used as molecular weight standards with elution volumes of 14.78 mL, 26.45 mL, 28.45 mL and 39.28 mL, respectively.
Purified sCD4 (D1-D4, 10 μg), Salp15 (10 μg) and sCD4 (10 μg)+Salp15 (10 μg) were diluted into 50% glycerol, 40 mM HEPES (pH 6.5) and 50 mM imidazole (pH 6.5). The native gel [5% Acrylamide:Bis (29:1), 40 mM HEPES (pH 6.5), 50 mM imidazole (pH 6.5) and 10% glycerol] electrophoresis was performed using a 40 mM HEPES (pH 6.5) running buffer and 50 mM imidazole (pH 6.5) at 8 mAmps for 1.5 hours at 4° C. The gel was stained with coomassie blue or transferred to IMMOBILON P® (Millipore) blotting paper for immunoblotting with anti-Poly His-HRP and anti-CD4.
A general note: Size exclusion chromatography separates by hydrodynamic size, large species first.

Assay [2] has as its target T2, CD4 on HeLa-CD4 cells (Homo sapiens, UniProt P01730).
T2 construct: host or cells: HeLa
The experiment in a line: Competition of Salp15488 binding to HeLa-CD4 cells. The following applies: Salp15 or lysozyme 0.5 mg/mL. How it is done: For colocalization experiments, Jurkat and CD4^+ T cells were cytospun as described herein. HeLa and HeLa-CD4 cells were grown on chamber slides. The cells were fixed and stained with anti-CD4 and Salp15 as follows. Purified Salp15 was labeled using Alexa-488 with the Protein Labeling Kit (Molecular Probes) according to the manufacturer's instructions. Fixed cells were blocked with 5% normal serum and anti-CD16/CD32 (1:100) in PBS, incubated with 1 μg of monoclonal biotinylated anti-CD4 (L3T4) (BD Biosciences Pharmingen) followed by streptavidin594 staining. The cells were then stained with 20 μg/mL of Salp15488. For competition assays, cells were first blocked with 5% normal serum, incubated with either polyclonal anti-CD4 antibody, MT310, OKT4, normal rabbit IgG, Salp15 (0.5 mg/mL) or lysozyme (0.5 mg/mL) followed by staining with Salp15488. All samples were mounted in a GVA Mount (Zymed, San Francisco, Calif., U.S.A.) and visualized with an Olympus Confocal microscope equipped with Fluoview 3.0 software.

Assay [3] has as its system Jurkat cells. Put plainly: Actin polymerization (phalloidin488 staining, F-actin immunoblot) in activated Jurkat cells. It counts as cell-based, human. The following applies: Salp15 pretreatment. The protocol: For the visualization of lipid rafts, phospho-tyrosine, and cytoskeleton reorganization, CD4^+, CD8^+ or Jurkat cells were cytospun for 10 minutes at 1000 RPM onto positively charged microslides (Fisher Scientific, Hampton, N.H., U.S.A.). The cells were fixed with 3.7% paraformaldehyde (Sigma Chemical Co.) for 15 minutes and stained with CTB594 (Molecular Probes, Eugene, Oreg., U.S.A.), AlexaFluor488 labeled phalloidin (Molecular Probes) or (1:50) biotin-conjugated anti-p-Tyr (PY99) followed by Streptavidin-AlexaFluor594 (1:100, Molecular Probes). For p-LAT and p-PLCγ1 staining, fixed cells were treated with PBS containing 0.1% Triton-X 100 and 100 mM glycine for 15 min at room temperature and stained using rabbit p-LAT (Tyr^191) or rabbit anti-p-PLCγ1 (Tyr^783) probed with anti-rabbit IgG488 (Molecular Probes).
The amount of F-actin in activated CD4+ T cells in the presence and absence of Salp15 was quantified by ultracentrifugation and Western blotting. CD4^+ T cells were activated as described above for 2 min. Cells were lysed in HEPES buffer containing Triton X-100 (10 mM NaCl, 135 mM KCl, 2 mM MgCl2, 2 mM EGTA, 10 mM HEPES pH 7.15, 1% Triton X-100, 0.01 mg/ml aprotinin, 0.01 mg/ml leupeptin, 1 mM PMSF). […] Equal amounts of total protein were loaded on the SDS-gel based on the total actin determined from a sample of the cell lysate.
A general note: A western blot detects proteins with antibodies after separation by electrophoresis.

As to “Salp15: secreted salivary protein from Ixodes scapularis, SEQ ID NO: 2; recombinant His-tagged, produced in Drosophila S2 cells”, the “Migration with sCD4 (D1-D4) in native gel” value in assay [1] is listed as “co-migrated”. Besides, the “Competition of Salp15488 binding to HeLa-CD4 cells by preincubation” value in assay [2] is given as “competed”. Further, in assay [3], the “Phalloidin488 staining / amount of F-actin” value is “reduced”.
